{
  "source": "paper PMC5348300",
  "about": "(Journal of the American Chemical Society, 2017)",
  "proteins": {"B1": {"name": "coproheme decarboxylase (HemQ) from Geobacillus stearothermophilus (enzyme)", "chain": "MSEAAQTLDGWYCLHDFRTIDWSAWKTLPNEEREAAISEFLALVDQWETTESEKQGSHAVYTIVGQKADILFMILRPTLDELHEIETALNKTKLADYLLPAYSYVSVVELSNYLASGSEDPYQIPEVRRRLYPILPKTNYICFYPMDKRRQGNDNWYMLSMEQRRELMRAHGMTGRKYAGKVTQIITGSVGLDDFEWGVTLFSDDALQFKKLVYEMRFDEVSARFGEFGSFFVGTRLPMENVSSFFHV"}},
  "target": "the molecule itself",
  "experiment": "crystal structure",
  "data": [
    {"protein": "B1", "values": [
      {"measurement": "stoichiometry N", "value": 5}
    ]}
  ]
}
